From patent US7166691B2, “Saposin C and receptors as targets for treatment of benign and malignant disorders” (priority 2002, dated 2007)

Experiments:
[1] = system: normal prostate stromal cells; details: NaSe 10 μM, 48 h
prosaposin = details: LNCaP and normal prostate stromal cells; 0.1, 1, 10 nM; 24 h
[2] = system: enzymes in the MAPK signaling transduction pathway (MEK1/2, p42/44, p90RSK); experiment: Activation of MAPK signaling transduction pathway (phospho-specific Western); assay type: cell-based, human; details: PC-3, DU-145, LNCaP
Procedure: (§1) Cells were grown to 80% confluency by incubating in their respective serum-free basal media for 18 h. For each cell line, tissue culture plates were pre-treated with a specific MEK1/2 inhibitor (U0126, Cat.# 9903, Cell Signaling Technology, Beverly, Mass.) at 10 μM for 1.5 h. Saposin C and TX14A were added at the following concentrations: 0.1, 1.0, and 10 nM. The cells were then incubated at 37° C. for 5 min, washed, and lysed on ice in RIPA buffer supplemented with protease inhibitors and 1 mM sodium orthovandate, as described in S. Koochekpour et al., 1999. Clarified cell lysates were subjected to Western analysis using phospho-specific antibodies against three enzymes in the MAPK Pathway: MEK1/2 (Ser217/22; Cat.# 9121; Cell Signaling Technology, Beverly, Mass.); p90RSK (p90^rsk, Ser380, Cat# 9341, Cell Signaling Technology); and p42/44 MAP Kinases (p44^MAPK, p42^MAPK; Thr202/Tyr204, Cat# 9102; Cell Signaling Technology). Primary antibodies against p42/44 MAP kinase (Cell Signaling Technology) or against tubulin (Cat# 12463, Santa Cruz Biotechnology, Santa Cruz, Calif.) were used as controls. To quantify the difference between the control and the various treatments, the autoradiograms were read on a densitometer, an Alpha Imager 2000 (Alpha Innotech Corp., San Leandro, Calif.).

[3] = system: prostate cancer cells and normal prostate cells; experiment: Protection from NaSe-induced cell death, cell lines overall; assay type: cell-based, human; details: dose dependent; NaSe 10 μM; 48 h
MEK1/2 = experiment: Phospho-specific Western, MEK1/2; assay type: cell-based, human; details: normal prostate epithelial cells; 0.1, 1.0, 10 nM
Procedure: as §1

PC-3 [4] = experiment: Transwell Matrigel cell invasion assay; assay type: cell-based, human; details: saposin C 0.1-10 nM, 16 h
Procedure: (§2) To test the effect of saposin C on prostatic cell migration and invasion, cell migration and invasion assays were performed using 24-well transwell units with 8-μm polycarbonate filters (Costar, purchased from Becton Dickinson, Bedford, Mass.), as described in S. Koochekpour et al., “Met and […] expression in human glioma,” Cancer Res., vol. 57, pp. 5391–5398 (1997). For invasion assays, transwell filters were coated with 20 μg GFR-Matrigel matrix (Becton Dickenson) in 100 μl of basal medium, and left to air dry overnight. To the lower compartment of each transwell unit, was added 400 μl of basal media supplemented with 0.5% FBS and 0.1% BSA. Saposin C was then added to the lower compartment in the following concentrations: 0 (control), 0.1 nM, 1 nM, and 10 nM.
(§3) Cultured cells were freshly harvested by trypsinization and counted. Approximately 5000 cells were resuspended in 100 μl of serum-free medium With 0.1% BSA, and were placed in the upper compartment of the transwell unit. After 16 h of incubation at 37° C., cells in both the upper and lower compartments were fixed in methanol and stained with Diff-Quick (Dade, Aguada, Puerto Rico). Non-migratory cells in the upper surface of the filter were removed by wiping with a cotton swab. Cells under the filter were counted. The results of cell migration are shown in FIG. 4A; and of cell invasion in FIG. 4B. Each bar represents the mean +/−SEM of three duplicate experiments, and samples from each experiment were counted at least three times.

DU-145 [5] = experiment: Transwell Matrigel cell invasion assay; assay type: cell-based, human; details: saposin C 0.1-10 nM, 16 h
Procedure: as §2, §3

LNCaP [6] = experiment: Transwell Matrigel cell invasion assay; assay type: cell-based, human; details: saposin C 0.1-10 nM, 16 h
Procedure: as §2, §3

[7] = system: pro-cathepsin D and cathepsin D; experiment: Western blot of culture supernatant for cathepsin D expression; assay type: cell-based, human; details: LNCaP and normal prostate stromal cells; 0.1, 1, 10 nM; 24 h; compared to control (0 nM)
[8] = system: normal prostate epithelial cells; experiment: Cell proliferation (living cells, trypan blue exclusion); assay type: cell-based, human; details: 0.1, 1.0, 10 nM, 2 days
Procedure: To test the effects of saposin C and TX14A on cell proliferation, various cells were cultured as described in Example 1, incubated in only fresh media, or in media supplemented with saposin C or with TX14A at concentrations of 0.1, 1.0, and 10 nM. After incubation for 2 days, the number of living cells was determined by trypan blue exclusion method, as described above in Example 3. The results are shown in FIG. 3, in which each point represents the mean +/−SEM of three duplicate experiments.

p90RSK = experiment: Phospho-specific Western, p90RSK; assay type: cell-based, human
Procedure: as §1

[9] = system: colon cancer cells (LoVo); experiment: Transwell cell migration assay; assay type: cell-based, human; details: saposin C 0.1-10 nM
Procedure: as §2, §3
(§4) To test the effect of saposin C on migration and invasion of non-prostatic cancer cells, assays using human breast cancer cell line (MCF-7), colon cancer cell line (LoVo), and lung cancer cell line (H1299) were performed in 24-well transwell units with polycarbonate filters as described above in Example 5.

[10] = system: lung cancer cells (H1299); experiment: Transwell cell migration assay; assay type: cell-based, human; details: saposin C 0.1-10 nM
Procedure: as §2, §3, §4

[11] = system: breast cancer cells (MCF-7); experiment: Transwell cell migration assay; assay type: cell-based, human; details: saposin C 0.1-10 nM
Procedure: as §2, §3, §4

PC-3 cells = experiment: Protection from NaSe-induced cell death (trypan blue exclusion); assay type: cell-based, human; details: NaSe 10 μM, 48 h
[12] = system: normal prostate epithelial cells; experiment: as above; assay type: cell-based, human; details: NaSe 10 μM, 48 h
[13] = system: urokinase-type plasminogen activator (uPA); experiment: Western blot of supernatant for uPA; assay type: cell-based, human; details: normal prostate stromal cells, PC-3 and DU-145; 0.1, 1.0, 10 nM; 24 h
Procedure: (§5) To investigate the effect of saposin C on expression of both urokinase-type plasminogen activator (uPA) and the soluble uPA receptor (uPAR), normal prostate stromal cells and prostatic cancer cells (PC-3, DU-145, LNCaP) were cultured in media as described in Example 1. The cells were cultured in the preferred media up to 80% confluency, then washed twice with PBS, and incubated for 24 h at 37° C. in serum-free medium supplemented with either 0, 0.1, 1.0 or 10 nM saposin C. At the end of the incubation period, the cell-conditioned medium (Supernatant) was collected. The Supernatants were concentrated 5-fold using Centriprep-3 concentrator (Amikon, Beverley, Mass.), and stored frozen in −70° C. until use.
(§6) A Western blot analysis was performed (as in Examples 2 and 6) using commercially available anti-uPA and anti-uPAR antibodies (Cat# 389 and Cat# 399R, respectively; American Diagnostica Inc., Greenwich, Conn.).

[14] = system: prostate (PC-3, DU-145, LNCaP), breast (MCF-7), lung (H1299), and colon (LoVo) cancer cells; experiment: Cytotoxicity / cell number, all tested cancer cell lines incl. competitive inhibition; assay type: cell-based, human
Procedure: The conjugate of saporin and TX14A was made by special order by Advanced Targeting Systems with a 1:1 molar ratio between the peptide and saporin. Blank-SAP, a non-targeted saporin conjugate, was purchased as a control (ATS, Catalogue# IT-21). Exponentially growing cells were trypsinized and cultured in their complete culture media (1000/well in 96-well plates) as described in Example 1. After 1 day of incubation at 37° C., the culture media were supplemented with either TX14A, saporin, TX14A-saporin (conjugate), Saposin C, TX14A-saporin plus TX14A, or TX14A-Saporin plus Saposin C at the following concentrations: 0, 0.1, 1, 10, 100, 1000 nM. Three days after treatment, cell death was monitored with a Promega (Madison, Wis.) cell titer cytotoxicity kit. Cell counts were normalized to the media controls.

[15] = system: non-prostatic cancer cells (MCF-7, LoVo, H1299); experiment: Transwell migration and invasion, all cells tested; assay type: cell-based, human
Procedure: as §2
as §3, with “Non-migratory cells in the upper surface of the filter were removed by wiping with a cotton swab.” left out, “The results of cell migration are shown in FIG. 4A; and of cell invasion in FIG. 4B.” left out, “times. […]” for “times.”

PSA = experiment: Western blot of supernatant for PSA expression in LNCaP cells; assay type: cell-based, human; details: 24 h, at concentrations as low as 0.1 nM
Procedure: To investigate the effect of saposin C on the expression of PSA in LNCaP cells, cells were cultured in the preferred media up to 80% confluency, and then washed twice with PBS. The cells were incubated in serum-free medium supplemented with either testosterone (T), dihydrotestosterone (DHT), saposin C or TX14A at the following concentrations: 0, 0.1, 1 or 10 nM. […] The supernatants were concentrated 5-fold using Centriprep-3 concentrator (Amikon, Beverley, Mass.) and stored frozen in −70° C. until use. A Western blot analysis was performed (as in Examples 2 and 6) using commercially available anti-PSA (Santa Cruz Biotechnology, Santa Cruz, Calif.).

[16] = system: soluble uPA receptor (uPAR); experiment: Western blot of supernatant for soluble uPAR; assay type: cell-based, human; details: normal prostate stromal cells, PC-3 and DU-145; 0.1, 1.0, 10 nM; 24 h
Procedure: as §5, §6

[17] = system: colon cancer cells (LoVo); experiment: Transwell Matrigel cell invasion assay; assay type: cell-based, human; details: saposin C 0.1-10 nM
Procedure: as §2, §3, §4

[18] = system: lung cancer cells (H1299); experiment: Transwell Matrigel cell invasion assay; assay type: cell-based, human; details: saposin C 0.1-10 nM
Procedure: as §2, §3, §4

[19] = system: breast cancer cells (MCF-7); experiment: Transwell Matrigel cell invasion assay; assay type: cell-based, human; details: saposin C 0.1-10 nM
Procedure: as §2, §3, §4

p42/44 MAP Kinases = experiment: Phospho-specific Western, p42/44 MAP kinases; assay type: cell-based, human
Procedure: as §1

DU-145 cells = experiment: Protection from NaSe-induced cell death (trypan blue exclusion); assay type: cell-based, human; details: NaSe 10 μM, 48 h
PC-3 [20] = experiment: Transwell cell migration assay; assay type: cell-based, human; details: saposin C 0.1-10 nM in lower compartment, 16 h
Procedure: as §2, §3

DU-145 [21] = experiment: Transwell cell migration assay; assay type: cell-based, human; details: saposin C 0.1-10 nM, 16 h
Procedure: as §2, §3

[22] = system: normal primary prostate epithelial cells; experiment: Transwell cell migration assay; assay type: cell-based, human; details: presence or absence of saposin C
Procedure: as §2, §3

LNCaP [23] = experiment: Transwell cell migration assay; assay type: cell-based, human; details: saposin C 0.1-10 nM, 16 h
Procedure: as §2, §3

[24] = normal prostate epithelial cells, decreased at 0.1 nM, increased at 1.0 nM, decreased at 10 nM

O=[Se]([O-])[O-].[Na+].[Na+] [NaSe, sodium selenium]
toxic effect of NaSe [1]: resistant

C[C@]12CC[C@H]3[C@@H](CCC4=CC(=O)CC[C@@]43C)[C@@H]1CC[C@@H]2O [T, testosterone]
expression of prosaposin (prosaposin): stimulated the expression

C[C@]12CCC(=O)C[C@@H]1CC[C@@H]1[C@@H]2CC[C@]2(C)[C@@H](O)CC[C@@H]12 [DHT, dihydrotestosterone]
expression of prosaposin (prosaposin): stimulated the expression

N#CC(=C(/N)Sc1ccccc1N)/C(C#N)=C(\N)Sc1ccccc1N [U0126, reference compound]
inhibition of saposin C / TX14A activation of MAPK pathway enzymes ([2]; U0126 10 μM pre-treatment 1.5 h, stromal): substantially inhibited

B1: saposin C: Human saposin C, about 8–13 kDa protein proteolytically generated from prosaposin; obtained from Professor K. Sandoff (protein, UniProt P07602 311-390, looked up)
Saposin-C: SDVYCEVCEFLVKEVTKLIDNNKTEKEILDAFDKMCSKLPKSLSEECQEVVDTYGSSILSILLEEVSPELVCSMLHLCSG
modifications: Saposin-C
notes: Human saposin C, about 8–13 kDa protein proteolytically generated from prosaposin; obtained from Professor K. Sandoff
degree of cell death in the presence of NaSe [3]: decreased the degree of cell death
expression of MEK1/2 (phospho-MEK1/2 Western) (MEK1/2): dose-dependent increase
stimulation of invasion (PC-3 [4]): 100%
stimulation of invasion (DU-145 [5]): 70%
stimulation of invasion (LNCaP [6]): 48%
expression of pro-cathepsin D (50 kDa band) and active mature cathepsin D (36 kDa band) [7]: stimulate expression
effect on growth [8]: did not show any effect
pattern of p90RSK phosphorylation activity (p90RSK; [24]): biphasic pattern
pattern of p90RSK activity (p90RSK; normal prostate stromal cells): biphasic pattern
increase of migration [9]: 22–59%
increase of migration [10]: 44–460%
increase of migration [11]: 12–59%
protective effect, difference in the percent cell death with and without saposin C (PC-3 cells): 55%
activation of the enzymes in the MAPK signaling transduction pathway ([2]; normal prostate stromal cells, nanomolar concentrations, 5 min): activated
protection from cell death [12]: Neither Saposin C nor TX14A protected
extracellular level of uPA [13]: increased
cell proliferation of all cancer cell lines ([14]; 0.1-1000 nM, three days, much greater effect in PC-3 and DU-145): increased
effect on TX14A-saporin cytotoxicity in competitive inhibition assays ([14]; equimolar mixture with TX14A-saporin, simultaneous treatment): inhibited in a dose dependent manner
concentration at which the highest migration and invasion was seen [15]: 1 nM
extracellular level of PSA (PSA): significantly increased
extracellular level of uPAR [16]: increased
increase of invasion [17]: 16–37%
increase of invasion [18]: 19–195%
increase of invasion [19]: 22–36%
pattern of p42/44 phosphorylation activity (p42/44 MAP Kinases; [24]): biphasic pattern
increase in p42/44 phosphorylation as compared to the control (p42/44 MAP Kinases; normal prostate stromal cells, densitometry): 15 fold
protective effect, difference in the percent cell death with and without saposin C (DU-145 cells): 50%
stimulation of migration (PC-3 [20]): more than 300%
stimulation of migration (DU-145 [21]): 140%
migration through the filter [22]: neither migrated through the filter
stimulation of migration (LNCaP [23]): 50%
